Experimental data from patent publication US20240325561A1 (Seagen, published 2024).

T1: CD19 (UniProt P15391 20-556, limits assumed)
T1 sequence (looked up): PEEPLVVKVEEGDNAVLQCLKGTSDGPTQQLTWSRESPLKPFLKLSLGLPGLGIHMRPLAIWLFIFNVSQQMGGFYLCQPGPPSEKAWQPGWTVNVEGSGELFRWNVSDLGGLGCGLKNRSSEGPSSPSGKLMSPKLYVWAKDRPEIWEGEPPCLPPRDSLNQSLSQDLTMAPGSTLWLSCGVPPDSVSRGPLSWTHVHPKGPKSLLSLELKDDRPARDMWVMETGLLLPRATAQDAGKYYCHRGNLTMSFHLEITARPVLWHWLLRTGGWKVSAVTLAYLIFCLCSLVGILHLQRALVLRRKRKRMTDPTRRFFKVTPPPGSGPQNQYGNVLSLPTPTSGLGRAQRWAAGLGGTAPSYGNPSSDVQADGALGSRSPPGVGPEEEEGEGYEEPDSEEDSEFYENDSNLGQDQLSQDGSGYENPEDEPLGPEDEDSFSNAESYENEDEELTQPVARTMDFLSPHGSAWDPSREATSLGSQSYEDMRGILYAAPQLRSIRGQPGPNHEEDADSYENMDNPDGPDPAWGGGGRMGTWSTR


Experiments:
Experiment in all cases: cell-based or functional assay
transferrin receptor = transferrin receptor (UniProt P02786)
Sequence of transferrin receptor (P02786 whole entry): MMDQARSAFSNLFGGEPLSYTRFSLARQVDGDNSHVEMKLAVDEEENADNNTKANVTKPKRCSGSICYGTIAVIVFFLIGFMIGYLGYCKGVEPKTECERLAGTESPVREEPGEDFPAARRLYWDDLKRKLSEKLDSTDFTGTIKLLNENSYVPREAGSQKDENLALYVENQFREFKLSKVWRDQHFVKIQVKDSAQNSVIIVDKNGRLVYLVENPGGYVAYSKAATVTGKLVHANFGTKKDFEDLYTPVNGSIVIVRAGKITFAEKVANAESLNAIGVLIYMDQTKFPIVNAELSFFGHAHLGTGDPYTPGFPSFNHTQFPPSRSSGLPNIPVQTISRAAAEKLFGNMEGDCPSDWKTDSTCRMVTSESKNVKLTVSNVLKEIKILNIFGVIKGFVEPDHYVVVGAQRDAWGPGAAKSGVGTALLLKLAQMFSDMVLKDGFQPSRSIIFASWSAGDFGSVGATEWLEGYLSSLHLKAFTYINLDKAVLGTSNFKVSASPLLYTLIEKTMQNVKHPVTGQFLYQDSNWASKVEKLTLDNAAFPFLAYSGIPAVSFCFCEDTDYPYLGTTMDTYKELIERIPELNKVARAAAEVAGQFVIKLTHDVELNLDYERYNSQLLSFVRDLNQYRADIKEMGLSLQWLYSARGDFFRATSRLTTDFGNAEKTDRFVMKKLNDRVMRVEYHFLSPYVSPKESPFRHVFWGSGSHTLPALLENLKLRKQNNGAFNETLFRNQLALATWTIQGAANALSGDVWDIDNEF

CD19 [1] = molecular target: T1, CD19
CD19 [2] = molecular target: T1, CD19; remark: listed apart in the source

Molecule | IC50, cytotoxicity, colorectal cell line HT-29 (TfR copy number 23K) (transferrin receptor) [µM] | IC50, cytotoxicity, melanoma cell line SK-MEL-5 (TfR copy number 21K) (transferrin receptor) [µM] | IC50, in vitro cytotoxicity, RL cells (CD19 [1]) [mg/L] | IC50, in vitro cytotoxicity, Ramos cells (CD19 [1]) [mg/L] | IC50, in vitro cytotoxicity, SU-DHL-4 cells (CD19 [1]) [mg/L] | IC50, in vitro cytotoxicity, WSU-DLCL-2 cells (CD19 [1]) [mg/L] | fold improvement in cytotoxicity against the 8-load conjugate, Raj cells (CD19 [2]) [fold] | fold improvement in cytotoxicity against the 8-load conjugate, Ramos cells (CD19 [2]) [fold]
8-load anti-transferrin receptor ADC (cOKT9) having -X-D of MDpr-PABA(gluc)-Camptothecin (antibody) | > 1 | > 1 |  |  |  |  |  | 
hBU12-14 (antibody, V domains shown, antibody carries drug-linker 14 (MDpr-glucuronide-MMAE, no PEG), 8 drugs per antibody) VH: QVQLQESGPGLVKPSQTLSLTCTVSGGSISTSGMGVGWIRQHPGKGLEWIGHIWWDDDKRYNPALKSRVTISVDTSKNQFSLKLSSVTAADTAVYYCARMELWSYYFDYWGQGTLVTVSS VL: EIVLTQSPATLSLSPGERATLSCSASSSVSYMHWYQQKPGQAPRLLIYDTSKLASGIPARFSGSGSGTDFTLTISSLEPEDVAVYYCFQGSVYPFTFGQGTKLEIKR |  |  | 0.061 | 0.002 | 0.022 | 0.005 |  | 
hBU12-16 (antibody, V domains shown, antibody carries drug-linker 16 (MDpr-Lys(PEG24)-glucuronide-MMAE), 8 drugs per antibody) VH: QVQLQESGPGLVKPSQTLSLTCTVSGGSISTSGMGVGWIRQHPGKGLEWIGHIWWDDDKRYNPALKSRVTISVDTSKNQFSLKLSSVTAADTAVYYCARMELWSYYFDYWGQGTLVTVSS VL: EIVLTQSPATLSLSPGERATLSCSASSSVSYMHWYQQKPGQAPRLLIYDTSKLASGIPARFSGSGSGTDFTLTISSLEPEDVAVYYCFQGSVYPFTFGQGTKLEIKR |  |  | > 1 | 0.004 | > 1 | 0.003 |  | 
hBU12-43 (antibody, V domains shown, antibody carries drug-linker 43 (MDpr-Lys(PEG2)-glucuronide-MMAE), 8 drugs per antibody) VH: QVQLQESGPGLVKPSQTLSLTCTVSGGSISTSGMGVGWIRQHPGKGLEWIGHIWWDDDKRYNPALKSRVTISVDTSKNQFSLKLSSVTAADTAVYYCARMELWSYYFDYWGQGTLVTVSS VL: EIVLTQSPATLSLSPGERATLSCSASSSVSYMHWYQQKPGQAPRLLIYDTSKLASGIPARFSGSGSGTDFTLTISSLEPEDVAVYYCFQGSVYPFTFGQGTKLEIKR |  |  | 0.229 | 0.002 | > 1 | 0.012 |  | 
hBU12-42 (antibody, V domains shown, antibody carries drug-linker 42 (MDpr-Lys(PEG4)-glucuronide-MMAE), 8 drugs per antibody) VH: QVQLQESGPGLVKPSQTLSLTCTVSGGSISTSGMGVGWIRQHPGKGLEWIGHIWWDDDKRYNPALKSRVTISVDTSKNQFSLKLSSVTAADTAVYYCARMELWSYYFDYWGQGTLVTVSS VL: EIVLTQSPATLSLSPGERATLSCSASSSVSYMHWYQQKPGQAPRLLIYDTSKLASGIPARFSGSGSGTDFTLTISSLEPEDVAVYYCFQGSVYPFTFGQGTKLEIKR |  |  | > 1 | 0.003 | > 1 | 0.005 |  | 
hBU12-17 (antibody, V domains shown, antibody carries drug-linker 17 (MDpr-Lys(PEG12)-glucuronide-MMAE), 8 drugs per antibody) VH: QVQLQESGPGLVKPSQTLSLTCTVSGGSISTSGMGVGWIRQHPGKGLEWIGHIWWDDDKRYNPALKSRVTISVDTSKNQFSLKLSSVTAADTAVYYCARMELWSYYFDYWGQGTLVTVSS VL: EIVLTQSPATLSLSPGERATLSCSASSSVSYMHWYQQKPGQAPRLLIYDTSKLASGIPARFSGSGSGTDFTLTISSLEPEDVAVYYCFQGSVYPFTFGQGTKLEIKR |  |  | > 1 | 0.002 | > 1 | 0.129 |  | 
hBU12 32-load conjugate having the -X-D moiety of MDpr-PAB(gluc)-Camptothecin (antibody, V domains shown, antibody carries PEGylated multiplexed scaffold C with MDpr-PAB(gluc)-Camptothecin, 32 drugs per antibody) VH: QVQLQESGPGLVKPSQTLSLTCTVSGGSISTSGMGVGWIRQHPGKGLEWIGHIWWDDDKRYNPALKSRVTISVDTSKNQFSLKLSSVTAADTAVYYCARMELWSYYFDYWGQGTLVTVSS VL: EIVLTQSPATLSLSPGERATLSCSASSSVSYMHWYQQKPGQAPRLLIYDTSKLASGIPARFSGSGSGTDFTLTISSLEPEDVAVYYCFQGSVYPFTFGQGTKLEIKR |  |  |  |  |  |  | > 5 | > 5
hBU12-19 (antibody, V domains shown, antibody carries drug-linker 19 (MDpr-Lys(PEG4[PEG4]3)-glucuronide-MMAE, branched PEG), 8 drugs per antibody) VH: QVQLQESGPGLVKPSQTLSLTCTVSGGSISTSGMGVGWIRQHPGKGLEWIGHIWWDDDKRYNPALKSRVTISVDTSKNQFSLKLSSVTAADTAVYYCARMELWSYYFDYWGQGTLVTVSS VL: EIVLTQSPATLSLSPGERATLSCSASSSVSYMHWYQQKPGQAPRLLIYDTSKLASGIPARFSGSGSGTDFTLTISSLEPEDVAVYYCFQGSVYPFTFGQGTKLEIKR |  |  | > 1 | 0.002 | > 1 | 0.247 |  | 
hBU12-18 (antibody, V domains shown, antibody carries drug-linker 18 (MDpr-Lys(PEG8)-glucuronide-MMAE), 8 drugs per antibody) VH: QVQLQESGPGLVKPSQTLSLTCTVSGGSISTSGMGVGWIRQHPGKGLEWIGHIWWDDDKRYNPALKSRVTISVDTSKNQFSLKLSSVTAADTAVYYCARMELWSYYFDYWGQGTLVTVSS VL: EIVLTQSPATLSLSPGERATLSCSASSSVSYMHWYQQKPGQAPRLLIYDTSKLASGIPARFSGSGSGTDFTLTISSLEPEDVAVYYCFQGSVYPFTFGQGTKLEIKR |  |  | > 1 | 0.002 | 0.016 | 0.211 |  | 
